Patent US12383631

Assays:
[1] = target: Composition A (LZM-009 conjugated to IL-18 polypeptide of SEQ ID NO: 30) (human) (UniProt Q14116)
[2] = target: Composition C (Trastuzumab/Herceptin conjugated to IL-18 polypeptide of SEQ ID NO: 30) (human)
[3] = target: Composition D (LZM-009 conjugated to IL-18 polypeptide of SEQ ID NO: 31) (human) (UniProt Q14116)
[4] = target: IL-18 polypeptide of SEQ ID NO: 31 (C38A, C76A, C127A) (human) (UniProt Q14116)
[5] = target: native IL-18 wild-type (SEQ ID NO: 1) (human) (UniProt Q14116)
[6] = target: Composition C (Trastuzumab/Herceptin conjugated to IL-18 polypeptide of SEQ ID NO: 30) (human); experiment: cell-based or functional assay
[7] = target: IL-18 polypeptide C143 (human) (UniProt Q14116); experiment: cell-based or functional assay
[8] = target: IL-18 polypeptide C144 (human) (UniProt Q14116); experiment: cell-based or functional assay
[9] = target: IL-18 polypeptide C147 (human) (UniProt Q14116); experiment: cell-based or functional assay
[10] = target: IL-18 polypeptide C150 (human) (UniProt Q14116); experiment: cell-based or functional assay
[11] = target: IL-18 polypeptide C151 (human) (UniProt Q14116); experiment: cell-based or functional assay
[12] = target: IL-18 polypeptide C153 (human) (UniProt Q14116); experiment: cell-based or functional assay
[13] = target: IL-18 polypeptide C154 (human) (UniProt Q14116); experiment: cell-based or functional assay
[14] = target: IL-18 polypeptide C155 (human) (UniProt Q14116); experiment: cell-based or functional assay
[15] = target: IL-18 polypeptide C157 (human) (UniProt Q14116); experiment: cell-based or functional assay
[16] = target: IL-18 polypeptide C158 (human) (UniProt Q14116); experiment: cell-based or functional assay
[17] = target: IL-18 polypeptide C161 (human) (UniProt Q14116); experiment: cell-based or functional assay
[18] = target: IL-18 polypeptide C162 (human) (UniProt Q14116); experiment: cell-based or functional assay
[19] = target: IL-18 polypeptide C165 (human) (UniProt Q14116); experiment: cell-based or functional assay
[20] = target: IL-18 polypeptide C166 (human) (UniProt Q14116); experiment: cell-based or functional assay
[21] = target: IL-18 polypeptide C168 (human) (UniProt Q14116); experiment: cell-based or functional assay
[22] = target: IL-18 polypeptide of SEQ ID NO: 31 (C38A, C76A, C127A) (human) (UniProt Q14116); experiment: cell-based or functional assay
[23] = target: IL-18 polypeptide of SEQ ID NO: 34 (E06K, K53A, S55A) (human) (UniProt Q14116); experiment: cell-based or functional assay
[24] = target: IL-18 polypeptide of SEQ ID NO: 35 (Y01G, F02A, E06K, M51G, K53A, D54A, S55A, T63A) (human) (UniProt Q14116); experiment: cell-based or functional assay
[25] = target: IL-18 polypeptide of SEQ ID NO: 36 (K53A) (human) (UniProt Q14116); experiment: cell-based or functional assay
[26] = target: IL-18 polypeptide of SEQ ID NO: 37 (S55A) (human) (UniProt Q14116); experiment: cell-based or functional assay
[27] = target: IL-18 polypeptide of SEQ ID NO: 4 (E6K, C38A, K53A, C68A, M86C) (human) (UniProt Q14116); experiment: cell-based or functional assay
[28] = target: IL-18 polypeptide of SEQ ID NO: 41 (K53A, S55A) (human) (UniProt Q14116); experiment: cell-based or functional assay
[29] = target: IL-18 polypeptide of SEQ ID NO: 42 (E06K, K53A, S55A, T63A) (human) (UniProt Q14116); experiment: cell-based or functional assay
[30] = target: IL-18 polypeptide of SEQ ID NO: 47 (C38S, C68S, C76S, C127S) (human) (UniProt Q14116); experiment: cell-based or functional assay
[31] = target: IL-18 polypeptide of SEQ ID NO: 48 (C38S, C68S, C76S, C127S, K70C) (human) (UniProt Q14116); experiment: cell-based or functional assay
[32] = target: IL-18 polypeptide of SEQ ID NO: 51 (T63A) (human) (UniProt Q14116); experiment: cell-based or functional assay
[33] = target: IL-18 polypeptide of SEQ ID NO: 55 (K53A, T63A, C38S, C68S, C76S, C127S, K70C) (human) (UniProt Q14116); experiment: cell-based or functional assay
[34] = target: IL-18 polypeptide of SEQ ID NO: 59 (E6K, C38A, K53A) (human) (UniProt Q14116); experiment: cell-based or functional assay
[35] = target: IL-18 polypeptide of SEQ ID NO: 6 (E6K, V11I, C38A, K53A, T63A, C68A, C76A, D98C, C127A) (human) (UniProt Q14116); experiment: cell-based or functional assay
[36] = target: IL-18 polypeptide of SEQ ID NO: 60 (E6K, C38Q, K53A) (human) (UniProt Q14116); experiment: cell-based or functional assay
[37] = target: IL-18 polypeptide of SEQ ID NO: 62 (E6K, C38A, K53A, C127A) (human) (UniProt Q14116); experiment: cell-based or functional assay
[38] = target: IL-18 polypeptide of SEQ ID NO: 9 (E6K, C38A, K53A, C68A, D98C) (human) (UniProt Q14116); experiment: cell-based or functional assay
[39] = target: native IL-18 wild-type (SEQ ID NO: 1) (human) (UniProt Q14116); experiment: cell-based or functional assay

- IC50 (read off the curve), IFNg secretion of the stimulated NK92 cells (IFNg AlphaLISA signal) [1]: 8 nM
- IC50 (read off the curve), IFNg secretion of the stimulated NK92 cells (IFNg AlphaLISA signal) [2]: 10 nM
- IC50 (read off the curve), IFNg secretion of the stimulated NK92 cells (IFNg AlphaLISA signal) [3]: 0.1 nM
- IC50 (read off the curve), IFNg secretion of the stimulated NK92 cells (IFNg AlphaLISA signal) [4]: 0.3 nM
- IC50 (read off the curve), IFNg secretion of the stimulated NK92 cells (IFNg AlphaLISA signal) [5]: 1 nM
- IC50 of IL-18BPa on IFNγ secretion by NK92 cells [6]: 21.4 nM
- IC50 of IL-18BP on IFNγ secretion, NK92 cells [7]: 1.62 nM
- IC50 of IL-18BP on IFNγ secretion, NK92 cells [8]: 7.52 nM
- IC50 of IL-18BP on IFNγ secretion, NK92 cells [9]: 47.6 nM
- IC50 of IL-18BP on IFNγ secretion, NK92 cells [10]: 21.3 nM
- IC50 of IL-18BP on IFNγ secretion, NK92 cells [11]: 3.62 nM
- IC50 of IL-18BP on IFNγ secretion, NK92 cells [12]: 2.22 nM
- IC50 of IL-18BP on IFNγ secretion, NK92 cells [13]: 3.71 nM
- IC50 of IL-18BP on IFNγ secretion, NK92 cells [14]: 3.23 nM
- IC50 of IL-18BP on IFNγ secretion, NK92 cells [15]: 6.08 nM
- IC50 of IL-18BP on IFNγ secretion, NK92 cells [16]: 3.98 nM
- IC50 of IL-18BP on IFNγ secretion, NK92 cells [17]: 1.07 nM
- IC50 of IL-18BP on IFNγ secretion, NK92 cells [18]: 7.29 nM
- IC50 of IL-18BP on IFNγ secretion, NK92 cells [19]: 0.885 nM
- IC50 of IL-18BP on IFNγ secretion, NK92 cells [20]: 0.44 nM
- IC50 of IL-18BP on IFNγ secretion, NK92 cells [21]: 0.176 nM
- IC50 of IL-18BPa on IFNγ secretion by NK92 cells [22]: 0.282 nM
- IC50 of IL-18BP on IFNγ secretion, NK92 cells [23]: 229 nM
- IC50 of IL-18BP on IFNγ secretion, NK92 cells [24]: > 55 nM
- IC50 of IL-18BP on IFNγ secretion, NK92 cells [25]: 27.3 nM
- IC50 of IL-18BP on IFNγ secretion, NK92 cells [26]: 4.46 nM
- IC50 of IL-18BP on IFNγ secretion, NK92 cells [27]: 396 nM
- IC50 of IL-18BP on IFNγ secretion, NK92 cells [28]: 37.3 nM
- IC50 of IL-18BP on IFNγ secretion, NK92 cells [29]: 1060 nM
- IC50 of IL-18BP on IFNγ secretion, NK92 cells [30]: 0.444 nM
- IC50 of IL-18BP on IFNγ secretion, NK92 cells [31]: 0.114 nM
- IC50 of IL-18BP on IFNγ secretion, NK92 cells [32]: 0.239 nM
- IC50 of IL-18BP on IFNγ secretion, NK92 cells [33]: > 1000 nM
- IC50 of IL-18BP on IFNγ secretion, NK92 cells [34]: 654 nM
- IC50 of IL-18BP on IFNγ secretion, NK92 cells [35]: 5.85 nM
- IC50 of IL-18BP on IFNγ secretion, NK92 cells [36]: 780 nM
- IC50 of IL-18BP on IFNγ secretion, NK92 cells [37]: 284 nM
- IC50 of IL-18BP on IFNγ secretion, NK92 cells [38]: 961 nM
- IC50 of IL-18BP on IFNγ secretion, NK92 cells [39]: 1.47 nM
- IC50 of IL-18BPa on IFNγ secretion by NK92 cells [39]: 0.781 nM
Substance: Fc fused human IL-18 binding protein isoform a (IL-18BPa; R&D systems, Cat #119-BP) (from UniProt O95998 31-194) (Fc fusion)
